Assay results as given in PMC9965858.

What was measured:
[1] = target: Dengue virus type 2 non-structural protein 1 (NS1) produced by DENV2-infected A549 cells (Dengue virus type 2) (UniProt P14340); assay: SDS-PAGE of samples heated or not heated, then Western blot
[2] = target: recombinant DENV2-NS1^V5-tag (Dengue virus type 2) (UniProt P14340); assay: as above

Substance: Dengue virus type 2 non-structural protein 1 (NS1) produced by DENV2-infected A549 cells (from UniProt P14340) (natural protein)
- stoichiometry N [1]: 2

Substance: recombinant DENV2-NS1^V5-tag (from UniProt P14340 776-1127) (natural protein)
- stoichiometry N [2]: 2
